Experimental data as given in patent US20040170622A1, “Methods and compositions for modulating XBP-1 activity” (President and Fellows of Harvard College, priority 2002, published 2004).

Key:
[1] = test system: BCL-1 cells; experiment: IgM secretion by retrovirally transduced BCL-1 cells (ELISA); type: cell-based
Procedure: Mouse splenocytes or purified B cells (purified mature B cells were isolated from spleen and lymph nodes by magnetic CD43 depletion or B220 magnetic bead selection, Miltenyi Biotech, Auburn Calif.) were plated at 1×10^6 cells/ml in complete media containing RPMI 1640 supplemented with 10% fetal calf serum (FBS)(Hyclone Laboratories), glutamine (2 mM), penicillin (50 units/ml), streptomycin (50 μg/ml), Hepes (100 mM), nonessential amino acids (1×) sodium pyruvate (1 mM) and β-ME (50 μM) and stimulated with anti-CD40(1 μg/ml)(Pharmigen) or LPS (20 μg/ml)(Sigma). Cytokines (R&D Systems, Minneapolis, Minn.) were used at IL-4 (20 ng/ml), IL-2 (20 ng/ml), Il-5 (20 ng/ml), IL-6 (20 ng/ml ), IL-10 (20 ng/ml ) and IL-13 (20 ng/ml). Stimulated B cells were split to a cell concentration of 1×10^6 cells/ml with fresh media every 24 h. The BCL1 (CWS13.20-3B3 ATCC CRL 1699) cell line was cultured in RPMI media supplemented with 10% FBS, gentamicin (20 μg/ml), and β-ME (50 μM). To induce differentiation cells were plated at 2×10^5 cells/ml and treated with recombinant mouse IL-2 and IL-5 (20 ng/ml) (R&D systems).
(§1) Assays to measure immunoglobulin or cytokine levels in culture supernatants were performed as described (e.g., Hodge et al., 1996 Immunity. 4:397-405 or Science. 1996 274:1903-5).
The XBP-1 cDNAs for the unspliced (XBP-1u/s) and the spliced (XBP-1s) forms were PCR-amplified from the total RNA of untreated and tunicamycin treated NIH3T3 cells, respectively, with a primer set (5′-[…]-3′ (SEQ ID NO: 7) and 5′-[…]-3′) (SEQ ID NO: 8). XBP-1u form was generated by a PCR-based mutagenesis from XBP-unspliced/s cDNA so that the two G residues at position 532 and 535 were changed to A without changing amino acid sequences in the XBP-1u open reading frame. Numbers are based on the sequences from gene bank database (NM_013842 [gi:13775155]). These XBP-1 cDNAs were inserted into the GFP-RV retroviral vector by using blunt end ligation (Sambrook et al., 1989). EFFECTENE transfection (Quiagen) was used to introduce the DNA into the Phoenix cell line as described by manufacturer (e.g., Reimold et al., 2001 Nature. 412:300-7 or Int Immunol. 2001 13:241-8). Viral supernatants were harvested after 48 hours and frozen at −80° C. for later use. B cells were purified from mouse spleens using CD43 depletion or positive selection with B220+ magnetic beads as described by the manufacturer (MidiMacs, Miltenyi Biotech). B cell purity was generally near 95% as confirmed by flow cytometry. The B cells (10^6 cells /ml) were then activated in culture with LPS 10 μg/ml and F (ab′)2 anti-IgM (5 μg/ml Southern Biotechnology Associates Inc.) for 24 hours. […]

[2] = test system: IL-6; experiment: IL-6 production by retrovirally transduced wt and XBP-1-/- B cells (ELISA, Northern blot); type: cell-based, murine; conditions: for secretion of IL-6 compared to control cells: LPS 72 h
Procedure: as §1
The XBP-1 cDNAs for the unspliced (XBP-1u/s) and the spliced (XBP-1s) forms were PCR-amplified from the total RNA of untreated and tunicamycin treated NIH3T3 cells, respectively, with a primer set (5′-[…]-3′ (SEQ ID NO: 7) and 5′-[…]-3′) (SEQ ID NO: 8). XBP-1u form was generated by a PCR-based mutagenesis from XBP-unspliced/s cDNA so that the two G residues at position 532 and 535 were changed to A without changing amino acid sequences in the XBP-1u open reading frame. Numbers are based on the sequences from gene bank database (NM_013842 [gi:13775155]). These XBP-1 cDNAs were inserted into the GFP-RV retroviral vector by using blunt end ligation (Sambrook et al., 1989). EFFECTENE transfection (Quiagen) was used to introduce the DNA into the Phoenix cell line as described by manufacturer (e.g., Reimold et al., 2001 Nature. 412:300-7 or Int Immunol. 2001 13:241-8). Viral supernatants were harvested after 48 hours and frozen at −80° C. for later use. B cells were purified from mouse spleens using CD43 depletion or positive selection with B220+ magnetic beads as described by the manufacturer (MidiMacs, Miltenyi Biotech). B cell purity was generally near 95% as confirmed by flow cytometry. The B cells (10^6 cells /ml) were then activated in culture with LPS 10 μg/ml and F (ab′)2 anti-IgM (5 μg/ml Southern Biotechnology Associates Inc.) for 24 hours. The 1 ml of activated B cells (10^6 cells/ml) were mixed with 4 μg of polybrene and 1 ml of virus-containing supernatant and spun at 1000 g for 45 minutes at 24° C. Cells were incubated for 24-36 h at 37° C. and then GFP+ cells were flow sorted and returned to culture with and without stimulation.
In human multiple myeloma cells, XBP-1 was induced by IL-6 treatment and implicated in the proliferation of malignant plasma cells (Wen et al., 1999). However, no role for IL-6 in upregulating XBP-1 transcripts or in mediating splicing of XBP-1 RNA in mature B cells has been described (FIG. 6A). The ability of XBP-1 to induce IL-6 production in wt and XBP-1^−/− primary B cells was tested. As described above, in vitro activated murine splenic B cells were transduced using retroviruses expressing bicistronic mRNA for XBP-1u/s, XBP-1s, XBP-1u and control GFP. After cell sorting, GFP^+ cells were stimulated with LPS and assayed for cytokine production after 72 h. In FIG. 6 panel (A) purified B cells from wt and XBP-1^−/− mice were activated in culture with LPS 10 μg/ml and F(ab′)2 anti-IgM (5 μg/ml ) for 24 hours. Retroviral transduction with GFP alone (GFP-Rv), XBP-1u/s (XBP-1 u/s GFP Rv), XBP-1s (XBP-1s GFP Rv) or XBP-1u (XBP-1u GFP Rv) of activated B cells was performed. Cells were incubated for 24-36 h at 37° C. and then GFP+ cells were flow sorted and then returned to culture with LPS stimulation (10 μg/ml) for 72 h. Cytokine production was analyzed by ELISA from culture supernatants of stimulated B cells. Experiments were done at least three times and standard deviation is shown. In panel (B) Total RNAs were prepared from stimulated B cells above and XBP-1 mRNA levels were determined by Northern blot analysis with γ-actin control

B1: XBP-1s: vector encoding only the spliced form of murine XBP-1, a protein of 371 aa (protein)
chain: MVVVAAAPSAATAAPKVLLLSGQPASGGRALPLMVPGPRAAGSEASGTPQARKRQRLTHLSPEEKALRRKLKNRVAAQTARDRKKARMSELEQQVVDLEEENHKLQLENQLLREKTHGLVVENQELRTRLGMDTLDPDEVPEVEAKGSGVRLVAGSAESAAGAGPVVTSPEHLPMDSDTVASSDSESDILLGILDKLDPVMFFKCPSPESASLEELPEVYPEGPSSLPASLSLSVGTSSAKLEAINELIRFDHVYTKPLVLEIPSETESQTNVVVKIEEAPLSSSEEDHPEFIVSVKKEPLEDDFIPELGISNLLSSSHCLRPPSCLLDAHSDCGYEGSPSPFSDMSSPLGTDHSWEDTFANELFPQLISV
IgM secretion compared to vector alone controls ([1]; GFP positive BCL-1 cells treated with IL-2 and IL-5 for 3 days): approximately fourfold
Ig secretion ([1]; GFP positive BCL-1 cells untreated with cytokine): neither XBP-1u/s nor XBP-1s forms were able to induce Ig secretion
secretion of IL-6 compared to control cells ([2]; XBP-1-/- B cells): seven fold
increase in IL-6 gene expression compared to controls (Northern blot) ([2]; XBP-1s transduced cells): ~5 fold
secretion of IL-6 compared to control cells ([2]; wild type B cells): approximately ten-fold
